One series concerns the target PUF-10R (human, engineered, UniProt Q14671 828-955+992-1142+1028-1176, internal_change). Put plainly: FP.
Series [1] addresses T1, PUF-9R (human, engineered, UniProt Q14671 828-955+1028-1142+1028-1176, internal_change). Put plainly: FP.
The target in series [2] is PUF-8R (Pumilio1 PUF domain, wild type) (human, UniProt Q14671 828-1176). Put plainly: FP.
The target of another series is PUF-8R N1080Y (human, UniProt Q14671 828-1176, N1080Y). Put plainly: FP.
A further series has as its target PUF-8R H972Y (human, UniProt Q14671 828-1176, H972Y). Put plainly: FP.
The target of a further series is PUF-8R R1008Y (human, UniProt Q14671 828-1176, R1008Y). Put plainly: FP.
Another series concerns the target PUF-12R (human, engineered, UniProt Q14671 828-1027+992-1142+1028-1176, internal_change). Put plainly: FP.
For series [3], the target named is T1, PUF-9R. Put plainly: crystal structure.

Take AAUUGUUGUAAUAUUC (ssRNA) [10nt-RNA]: the binding signal with PUF-10R is ~7 fold Ka vs PUF-8R:RNA-8nt.
As for AAUUGUUGUAUAUUC (ssRNA) [9nt-RNA], in the series with PUF-9R [1], the binding signal is ~12 fold Ka vs PUF-8R:RNA-8nt.
AAUUGUAUAUAUUC (ssRNA) [8nt-RNA]: the binding result (in series [2]; with PUF-8R H972Y; with PUF-8R R1008Y) was “binds” throughout. The molecule also yielded a binding signal in the series with PUF-8R N1080Y of over 8 fold Ka vs PUF-8R R1008N.
Turning to AAUUGUUGUAAUAUAUUC (ssRNA) [12nt-RNA], in the series with PUF-12R, the binding result is “binds”.
For the molecule UGUUGUAUA (ssRNA) [RNA-9nt (crystal)], the binding result with PUF-9R [3] is “binds”.

The values are drawn from paper PMC5961129.
